Each substance was assayed against HLA-A*02:01 (Homo sapiens, UniProt P04439, D140Y/D185E/D98H/E176V/E277Q/G131W/G231S/I119V/I121R/I166T/I218V/L300P/L318F/N151K/N90K/P208A/P217A/Q86G/Q94H/R138H/R169H/T345S) (assay: MHC binding assay (UV-ligand exchange, β2m ELISA, peptide exchange yield)). Conditions: MHC class I binding score; binding to HLA-A*02:01 ranged by peptide exchange yield (UV-ligand exchange, β2m ELISA).
In short: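 Binding is expressed as peptide exchange yield: stabilized MHC complexes were quantified by β2m ELISA, with a 450 nm TMB read-out on streptavidin-coated plates. Complexes came from UV-ligand exchange, where UV irradiation cleaves a photolabile peptide so the candidate peptide can load.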

| Substance | Peptide exchange |
| --- | --- |
| 542 (RVWDISTVSSV; listed as Homo sapiens) [compound 542] | “+++” (≧50 = +++) |
| 543 (GLLPTPITQQASL; listed as Homo sapiens) [compound 543] | “+++” (≧50 = +++) |
| 544 (LLWDVPAPSL; listed as Homo sapiens) [compound 544] | “+++” (≧50 = +++) |
| 545 (LLADLLHNV; listed as Homo sapiens) [compound 545] | “+++” (≧50 = +++) |
| 546 (VMIAGKVAVV; listed as Homo sapiens) [compound 546] | “+++” (≧50 = +++) |
| 547 (TLDITPHTV; listed as Homo sapiens) [compound 547] | “+++” (≧50 = +++) |
| 548 (ALWENPESGEL; listed as Homo sapiens) [compound 548] | “++” (≧20% = ++) |
| 549 (AMLENASDIKL; listed as Homo sapiens) [compound 549] | “+++” (≧50 = +++) |
| 550 (FLYDEIEAEVNL; listed as Homo sapiens) [compound 550] | “+++” (≧50 = +++) |
| 551 (KLYESLLPFA; listed as Homo sapiens) [compound 551] | “+++” (≧50 = +++) |
| 552 (GLLDLPFRVGV; listed as Homo sapiens) [compound 552] | “++++” (≧75% = ++++) |
| 553 (SLLNQDLHWSL; listed as Homo sapiens) [compound 553] | “++++” (≧75% = ++++) |
| 554 (LLMPSSEDLLL; listed as Homo sapiens) [compound 554] | “+++” (≧50 = +++) |
| 555 (YVLEGLKSV; listed as Homo sapiens) [compound 555] | “+++” (≧50 = +++) |
| 556 (FLTDLEDLTL; listed as Homo sapiens) [compound 556] | “+++” (≧50 = +++) |
| 557 (KLYDDMIRL; listed as Homo sapiens) [compound 557] | “+++” (≧50 = +++) |
| 558 (GLLENIPRV; listed as Homo sapiens) [compound 558] | “+++” (≧50 = +++) |
| 559 (VTVPPGPSL; listed as Homo sapiens) [compound 559] | “++” (≧20% = ++) |
| 560 (ALWDIETGQQTTT; listed as Homo sapiens) [compound 560] | “+++” (≧50 = +++) |
| 561 (YLQLTQSEL; listed as Homo sapiens) [compound 561] | “+++” (≧50 = +++) |
| 562 (YLEELPEKLKL; listed as Homo sapiens) [compound 562] | “+++” (≧50 = +++) |
| 563 (WLLPYNGVTV; listed as Homo sapiens) [compound 563] | “+++” (≧50 = +++) |
| 564 (TVTNAVVTV; listed as Homo sapiens) [compound 564] | “+++” (≧50 = +++) |
| 565 (ALQETPTSV; listed as Homo sapiens) [compound 565] | “++” (≧20% = ++) |
| 566 (VIADGGIQNV; listed as Homo sapiens) [compound 566] | “++” (≧20% = ++) |
| 567 (SLLPLDDIVRV; listed as Homo sapiens) [compound 567] | “+++” (≧50 = +++) |

| Substance | Peptide exchange |
| --- | --- |
| 568 (TLYDIAHTPGV; listed as Homo sapiens) [compound 568] | “++++” (≧75% = ++++) |
| 569 (KLVDRTWTL; listed as Homo sapiens) [compound 569] | “+++” (≧50 = +++) |
| 570 (ALANQIPTV; listed as Homo sapiens) [compound 570] | “++” (≧20% = ++) |
| 571 (LLLTTIPQI; listed as Homo sapiens) [compound 571] | “+++” (≧50 = +++) |
| 572 (ALADLIEKELSV; listed as Homo sapiens) [compound 572] | “+++” (≧50 = +++) |
| 573 (ILVANAIVGV; listed as Homo sapiens) [compound 573] | “+++” (≧50 = +++) |
| 574 (YLLQEPPRTV; listed as Homo sapiens) [compound 574] | “++” (≧20% = ++) |
| 575 (YLISQVEGHQV; listed as Homo sapiens) [compound 575] | “+++” (≧50 = +++) |
| 576 (ILLNNSGQIKL; listed as Homo sapiens) [compound 576] | “++++” (≧75% = ++++) |
| 577 (VMFEDGVLMRL; listed as Homo sapiens) [compound 577] | “+++” (≧50 = +++) |
| 578 (FLDPGGPMMKL; listed as Homo sapiens) [compound 578] | “+++” (≧50 = +++) |
| 579 (NLMEMVAQL; listed as Homo sapiens) [compound 579] | “++” (≧20% = ++) |
| 580 (LLMENAERV; listed as Homo sapiens) [compound 580] | “++” (≧20% = ++) |
| 582 (TLCDVILMV; listed as Homo sapiens) [compound 582] | “+++” (≧50 = +++) |
| 583 (ILANDGVLLAA; listed as Homo sapiens) [compound 583] | “+++” (≧50 = +++) |
| 584 (ALAEVAAMENV; listed as Homo sapiens) [compound 584] | “+++” (≧50 = +++) |
| 585 (ALWDLAADKQTL; listed as Homo sapiens) [compound 585] | “++++” (≧75% = ++++) |
| 586 (KLKPGDLVGV; listed as Homo sapiens) [compound 586] | “+++” (≧50 = +++) |
| 587 (VMNDRLYAI; listed as Homo sapiens) [compound 587] | “+++” (≧50 = +++) |
| 588 (SLLPLSHLV; listed as Homo sapiens) [compound 588] | “+++” (≧50 = +++) |
| 589 (KLYPQLPAEI; listed as Homo sapiens) [compound 589] | “+++” (≧50 = +++) |
| 590 (SLIEKLWQT; listed as Homo sapiens) [compound 590] | “++” (≧20% = ++) |
| 591 (SMAELDIKL; listed as Homo sapiens) [compound 591] | “+++” (≧50 = +++) |
| 592 (RLLSAAENFL; listed as Homo sapiens) [compound 592] | “+++” (≧50 = +++) |
| 593 (GLPRFGIEMV; listed as Homo sapiens) [compound 593] | “+++” (≧50 = +++) |
| 594 (IMLKGDNITL; listed as Homo sapiens) [compound 594] | “+++” (≧50 = +++) |

| Substance | Peptide exchange |
| --- | --- |
| 595 (VLLSIYPRV; listed as Homo sapiens) [compound 595] | “+++” (≧50 = +++) |
| 596 (ALLDQTKTLAESAL; listed as Homo sapiens) [compound 596] | “+++” (≧50 = +++) |
| 597 (KLLEGQVIQL; listed as Homo sapiens) [compound 597] | “+++” (≧50 = +++) |
| 598 (FLFPHSVLV; listed as Homo sapiens) [compound 598] | “+++” (≧50 = +++) |
| 599 (YLLNDASLISV; listed as Homo sapiens) [compound 599] | “+++” (≧50 = +++) |
| 600 (ALAAPDIVPAL; listed as Homo sapiens) [compound 600] | “+++” (≧50 = +++) |
| 601 (SAFPFPVTV; listed as Homo sapiens) [compound 601] | “+++” (≧50 = +++) |
| 602 (YLLEQIKLIEV; listed as Homo sapiens) [compound 602] | “++++” (≧75% = ++++) |
| 604 (SILDRDDIFV; listed as Homo sapiens) [compound 604] | “+++” (≧50 = +++) |
| 605 (KLYEAVPQL; listed as Homo sapiens) [compound 605] | “+++” (≧50 = +++) |
| 606 (ALWETEVYI; listed as Homo sapiens) [compound 606] | “+++” (≧50 = +++) |
| 607 (RLYSGISGLEL; listed as Homo sapiens) [compound 607] | “+++” (≧50 = +++) |
| 608 (SLLSVSHAL; listed as Homo sapiens) [compound 608] | “+++” (≧50 = +++) |
| 609 (ALWKQLLEL; listed as Homo sapiens) [compound 609] | “+++” (≧50 = +++) |
| 610 (LLAPTPYIIGV; listed as Homo sapiens) [compound 610] | “+++” (≧50 = +++) |
| 611 (YLLDDGTLVV; listed as Homo sapiens) [compound 611] | “++++” (≧75% = ++++) |
| 612 (YLYNEGLSV; listed as Homo sapiens) [compound 612] | “+++” (≧50 = +++) |
| 613 (RLLPPGAVVAV; listed as Homo sapiens) [compound 613] | “+++” (≧50 = +++) |
| 614 (LLLPDQPPYHL; listed as Homo sapiens) [compound 614] | “+++” (≧50 = +++) |
| 615 (VLPPDTDPA; listed as Homo sapiens) [compound 615] | “++” (≧20% = ++) |
| 616 (VLIDEVESL; listed as Homo sapiens) [compound 616] | “+++” (≧50 = +++) |
| 617 (ALMYESEKVGV; listed as Homo sapiens) [compound 617] | “+++” (≧50 = +++) |
| 618 (VLFDSESIGIYV; listed as Homo sapiens) [compound 618] | “+++” (≧50 = +++) |
| 619 (ALQDRVPLA; listed as Homo sapiens) [compound 619] | “+++” (≧50 = +++) |
| 620 (KLLNKIYEA; listed as Homo sapiens) [compound 620] | “++++” (≧75% = ++++) |

Reference: patent US20170002055A1, “Novel peptides and combination of peptides for use in immunotherapy against ovarian cancer and other cancers” (immatics biotechnologies GmbH, priority 2015, published 2017)
